Here are results for 15 substances from US20200024330A1.

What all share (assay): cell-based or functional assay
Assay [1] deals with HIV-1 LAVIC_18 Env (HIV-1).
For assay [2], the target named is HIV-1 Env of isolate 92UG046 (clade D) (HIV-1).
The target in assay [3] is HIV-1 92RW020 envelope protein (Env) on pseudovirus (HIV-1).
Assay [4] deals with HIV-1 Env of isolate MGRM-AE-003 (HIV-1).
The target in assay [5] is HIV-1 Env of isolate MGRM-D-024 (clade D) (HIV-1).
For assay [6], the target named is HIV-1 Env of isolate 92RW008 (HIV-1).
In assay [7] the target is HIV-1 Env of pseudovirus NL43, clade B (HIV-1).
For assay [8], the target named is HIV-1 Env of isolate MGRM-G-024 (clade G pseudovirus) (HIV-1).
For assay [9], the target named is HIV-1 98IN022 envelope glycoprotein (Env) on pseudovirus (HIV-1).
Assay [10] concerns the target HIV-1 Env of isolate MGRM-D-004 (HIV-1).
Assay [11] has as its target HIV-1 Env of isolate MGRM-G-006 (subtype G) (HIV-1).
Assay [12] concerns the target HIV-1 Env of isolate MGRM-D-028 (clade D) (HIV-1).
Assay [13] has as its target HIV-1 Env of isolate 92UG031 (HIV-1).
In assay [14] the target is HIV-1 MGRM-C-028 envelope glycoprotein (Env) on pseudovirus (HIV-1).
Assay [15] deals with HIV-1 MGRM-Chronic-B-012 Env (pseudovirus) (HIV-1).
Assay [16] concerns the target HIV-1 Env of isolate MGRM-C-024 (pseudovirus) (HIV-1 isolate MGRM-C-024, subtype C).
For assay [17], the target named is HIV-1 Env of isolate MGRM-C-013 (pseudovirus) (HIV-1 isolate MGRM-C-013, subtype C).
Assay [18] concerns the target HIV-1 NL43 Env (pseudovirus) (HIV-1).
Assay [19] has as its target HIV-1 Env of isolate MGRM-F1-017 (HIV-1).
The target in assay [20] is aMLV envelope on pseudovirus (negative control virus).
Assay [21] concerns the target HIV-1 Env of isolate MG RM-D-026 (subtype D) (HIV-1).
In assay [22] the target is HIV-1 Env of isolate MGRM-C-009 (pseudovirus) (HIV-1 isolate MGRM-C-009, subtype C).
Assay [23] addresses HIV-1 JR-CSF Env N197A (HIV-1 (isolate JR-CSF)) (UniProt P20871).
The target of assay [24] is HIV-1 JR-CSF Env T162A (HIV-1 (isolate JR-CSF)) (UniProt P20871).
Assay [25] concerns the target HIV-1 Env of isolate MGRM-F1-014 (HIV-1).
Assay [26] concerns the target HIV-1 Env of isolate 92WR026 (HIV-1).
Assay [27] has as its target HIV-1 Env of isolate MGRM-C-026 (HIV-1).
Assay [28] concerns the target HIV-1 Env of isolate 93MW959 (HIV-1).

Consider 1496_C09 (PG9) (TCN-109) (antibody), for which the IC50 in assay [1] worked out at 0.1 µg/mL; in assay [6] it was 0.006 µg/mL; in assay [13], 3.6 µg/mL. The IC50 (µg/ml), pseudovirus neutralization amounted to 0.64 µg/mL in assay [2]; 0.03 µg/mL in [5]; 0.32 µg/mL in [7]; 0.07 µg/mL in assay [8]; 0.006 µg/mL in assay [9]; 4.39 µg/mL in [12]. Besides, the neutralization IC50 in assay [3] amounted to 0.0637 µg/mL; in assay [11], 1.98 µg/mL. Further, the IC50 (µg/mL), pseudovirus neutralization in assay [4] was determined as 0.044 µg/mL; in [10] it was 0.06 µg/mL. In addition, in [14], the IC50 (ug/ml), neutralizing activity stood at 0.121 µg/mL. Further, in assay [14], the IC50 neutralization turned out to be 0.121 µg/mL. In assay [14], this substance returned an IC80, neutralization of 0.645 µg/mL. The same substance returned an IC90, neutralization in [14] of 1.65 µg/mL. For the same substance, the IC95, neutralization in assay [14] is 3.71 µg/mL.

On to 4838_L06 (PGT-121) (antibody), for which the results for the IC50, pseudovirus neutralization in assay [15] and in assay [18] were 0.036 µg/mL and > 50 µg/mL, respectively. The IC50 (µg/mL) neutralization was 0.052 µg/mL in assay [16], 7.23 µg/mL in [17] and > 50 µg/mL in assay [22]. Moreover, the IC50 in [19] amounted to 16.9 µg/mL. Also, the IC50 (ug/ml), neutralizing activity in [20] is > 10 µg/mL. Moreover, in assay [21], the IC50 (µg/mL), pseudovirus neutralization is > 50 µg/mL.

4858_P08 (PGT-123) (antibody): the IC50, pseudovirus neutralization in assay [15] is 0.227 µg/mL; in assay [18], > 50 µg/mL; in [14], 0.443 µg/mL. The IC50 (µg/mL) neutralization in assay [16] was 0.195 µg/mL; in assay [17] it was 14.9 µg/mL; in assay [22] it was > 50 µg/mL. Moreover, the results for the Fold IC50 increase relative to wild-type in [23] and in assay [24] were 1.4 fold and 0.7 fold, respectively. The values for the IC50 in assay [19] and in assay [25] were > 50 µg/mL and 0.111 µg/mL, respectively. The IC50 (ug/ml), neutralizing activity was > 10 µg/mL in assay [20] and 0.443 µg/mL in [14]. In addition, the IC50 (µg/mL), pseudovirus neutralization in assay [21] was > 50 µg/mL. The substance also returned an IC80, pseudovirus neutralization in assay [14] of 2.8 µg/mL. Besides, in [14], the IC90 (pseudovirus neutralization) came out at 7.11 µg/mL. Besides, the IC95, pseudovirus neutralization in assay [14] is > 10 µg/mL.

Take 4877_D15 (PGT-122) (antibody): the IC50, pseudovirus neutralization was 0.066 µg/mL in assay [15] and > 50 µg/mL in assay [18]. For the same substance, the IC50 (µg/mL) neutralization in assay [16] was 0.102 µg/mL; in assay [17], 32.6 µg/mL; in assay [22] it was > 50 µg/mL. For the same substance, the IC50 in assay [19] was > 50 µg/mL; in assay [25] it was 0.195 µg/mL. In addition, the IC50 (ug/ml), neutralizing activity in [20] is > 10 µg/mL; in assay [14] it was 2.06 µg/mL. Moreover, the IC50 (µg/mL), pseudovirus neutralization in [21] was > 50 µg/mL.

For the substance 5123_A06 (PGT-125) (antibody), the IC50, pseudovirus neutralization is 0.036 µg/mL in [15] and > 50 µg/mL in [18]. Further, the IC50 (µg/mL) neutralization in [16], in assay [17] and in [22] was > 50 µg/mL each time. Further, the Fold IC50 increase relative to wild-type worked out at 1 fold in [23] and 0.5 fold in assay [24]. For the same substance, the half-inhibitory concentration (IC50) in [19] and in assay [25] was > 50 µg/mL each time. Also, the IC50 (ug/ml), neutralizing activity in assay [20] is > 10 µg/mL; in assay [14] it was 5.78 µg/mL. Also, the IC50 (µg/mL), pseudovirus neutralization in [21] was > 50 µg/mL. This substance also showed a neutralization IC50 in assay [14] of 5.78 µg/mL. In addition, the neutralization IC80 in assay [14] was > 10 µg/mL. Further, the neutralization IC90 in assay [14] is > 10 µg/mL. Besides, in assay [14], the neutralization IC95 is > 10 µg/mL.

As to 5141_B17 (PGT-126) (antibody), the IC50, pseudovirus neutralization was 0.027 µg/mL in [15] and > 50 µg/mL in [18]. The IC50 (µg/mL) neutralization in assay [16], in [17] and in [22] was > 50 µg/mL each time. Besides, the Fold IC50 increase relative to wild-type in assay [23] came out at 1.1 fold; in assay [24], 0.6 fold. In addition, the IC50 was > 10 µg/mL in [18], > 50 µg/mL in [19] and > 50 µg/mL in assay [25]. Also, the IC80 in [18] is > 10 µg/mL. The IC90 in [18] was > 10 µg/mL. The IC95 in assay [18] was > 10 µg/mL. Further, the IC50 (ug/ml), neutralizing activity in [20] is > 10 µg/mL; in assay [14], 0.283 µg/mL. The IC50 (µg/mL), pseudovirus neutralization in assay [21] was > 50 µg/mL.

As for 5145_B14 (PGT-127) (antibody), the IC50, pseudovirus neutralization in assay [15] was 0.075 µg/mL; in assay [18] it was > 50 µg/mL. In addition, the IC50 (µg/mL) neutralization in [16], in assay [17] and in assay [22] was > 50 µg/mL in each case. The Fold IC50 increase relative to wild-type is 0.6 fold in assay [23] and 1.1 fold in [24]. Also, the IC50 in assay [19] and in assay [25] was > 50 µg/mL each time. Moreover, in [21], the IC50 (µg/mL), pseudovirus neutralization was > 50 µg/mL.

As to PGT-121 (antibody), the IC50 (µg/mL), pseudovirus neutralization was > 50 µg/mL in assay [4], 0.003 µg/mL in [6], 0.014 µg/mL in [26] and > 50 µg/mL in assay [13]. The substance further showed a Primary Neutralization Index (B cell culture well 4838 L06) in assay [27] of 996. Besides, in assay [27], the Primary Neutralization Index (B cell culture well 4873 E03) came out at 371.

In the case of PGT-122 (antibody), the IC50 (µg/mL), pseudovirus neutralization in [4] was > 50 µg/mL; in assay [6] it was 0.003 µg/mL; in assay [26], 0.036 µg/mL; in assay [13], > 50 µg/mL.

In assay [11], PGT-141 (4964_G22; 4993_K13) (antibody) yielded a neutralization IC50 of 0.043 µg/mL.

Consider PGT-142 (4995_E20) (antibody), for which the neutralization IC50 in assay [11] is 0.019 µg/mL.

Substance PGT-143 (4980_N08) (antibody) yielded a neutralization IC50 in assay [11] of 0.031 µg/mL.

As to PGT-144 (4970_K22) (antibody), the neutralization IC50 in [11] was determined as 3.84 µg/mL.

For PGV04 (antibody), the IC50 (µg/mL), pseudovirus neutralization in assay [4] came to 6.4 µg/mL; in assay [25], 0.02 µg/mL; in [10], 43.2 µg/mL. Moreover, the figures for the IC50 in [6] and in [13] were 0.014 µg/mL and 4.46 µg/mL, respectively. In [11], this substance came in with a neutralization IC50 of 0.083 µg/mL.

Turning to VRC01 (antibody), the values for the neutralization IC50 in assay [28] and in [11] were 0.053 µg/mL and 0.055 µg/mL, respectively. The IC50, pseudovirus neutralization is 1.08 µg/mL in [19] and 0.056 µg/mL in assay [25].
